The source of these data is paper PMC11078644, “Nesprin-2 is a novel scaffold protein for telethonin and FHL-2 in the cardiomyocyte sarcomere” (The Journal of Biological Chemistry, 2024).

Test [1] addresses nesprin-2, endogenous ~200 kDa band of neonatal rat heart and neonatal rat cardiomyocytes. The experiment in a line: co-immunoprecipitation with telethonin antibody, Western blot densitometry. The note with it: lysates harvested 48 h after adenoviral infection, n = 5, parent: est. 1.0, read off a plot. (In general: In western blotting, separated proteins are transferred to a membrane and probed.)

For test [2], the target named is T1, His-telethonin (full length, pET DUET-1, N-terminal 6x Histidine tag), co-expressed with nesprin-2 SR51-53 (UniProt O15273 1-167).
T1 construct: telethonin, full length; printed mass 19 kDa; source: E. coli BL21(DE3)pLysS, co-expressed with nesprin-2 SR51-53, co-purified (His-trap, SEC); not shown: 6x His, N-terminal, kept
T1 sequence (looked up): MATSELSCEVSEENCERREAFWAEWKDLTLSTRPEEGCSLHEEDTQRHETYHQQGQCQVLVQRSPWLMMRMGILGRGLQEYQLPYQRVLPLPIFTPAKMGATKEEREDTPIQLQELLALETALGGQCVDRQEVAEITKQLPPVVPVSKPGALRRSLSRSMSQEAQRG
The experiment in a line: SEC; His-telethonin and untagged nesprin-2 SR51-53 co-expressed in E. coli, His-trap, Superdex 200 16/60, then Superdex 75 10/300; 50 mM Tris/HCl pH 7.5, 150 mM NaCl, 100 mM βME; single peak at 10.29 ml, both proteins found by Western blot. The following applies: both partners purified. In general terms: SEC sorts molecules by how far they enter the pores of the column.

Turning to “HA-tagged WT telethonin expressed from adenovirus in neonatal rat cardiomyocytes (from UniProt O15273) S157A; S161A”, the ratio to parent in test [1] came out at 4.8.

B1: nesprin-2 SR51-53 (no tag), co-expressed with His-telethonin (domain or fragment, human, UniProt Q8WXH0 6018-6354, looked up)
chain: KETFAFIQQLDKNMSNLRTWLARIESELSKPVVYDVCDDQEIQKRLAEQQDLQRDIEQHSAGVESVFNICDVLLHDSDACANETECDSIQQTTRSLDRRWRNICAMSMERRMKIEETWRLWQKFLDDYSRFEDWLKSAERTAACPNSSEVLYTSAKEELKRFEAFQRQIHERLTQLELINKQYRRLARENRTDTASRLKQMVHEGNQRWDNLQRRVTAVLRRLRHFTNQREEFEGTRESILVWLTEMDLQLTNVEHFSESDADDKMRQLNGFQQEITLNTNKIDQLIVFGEQLIQKSEPLDAVLIEDELEELHRYCQEVFGRVSRFHRRLTSCTPGL
notes: nesprin-2 giant, human, spectrin repeats 51-53, amino acids 6018-6354 of the full length of nesprin-2 giant; in CDF DUET-1 without a tag; printed mass 40.51 kDa; source: E. coli BL21(DE3)pLysS, co-expressed with His-telethonin, co-purified (His-trap, SEC)
For the molecule B1, the “stoichiometry N” value in test [2] was 1 nesprin-2 SR51-53 per telethonin.
